Test results reported in US20260207700A1, “MEDICAL PRODUCTS CONTAINING AN AQUEOUS FORMULATION OF A PEPTIDE” (LYTIX BIOPHARMA AS, priority 2022, published 2026).
Non-standard residues stand in square brackets, D forms with d. No end group written: not given here. Dip = N[C@H](C(=O)O)C(c1ccccc1)c1ccccc1

Tests used:
[1] = 20-30° C., protected from light; cited from earlier work
[2] = pH of LTX-315 drug product on storage (Ph. Eur. 2.2.3), Example 1.1; type: physicochemical; conditions: 20 mg/mL in WFI
Description: (§1) • LTX-315=acetate salt of peptide with sequence K-K-W-W-K-K-W-Dip-K-NH2 20 mg/mL LTX-315 drug product was prepared by dissolving LTX-315 powder in WFI and filtered through a 0.22 μm sterile filter. 1 ml of the drug product was then filled into vials and sealed. The WFI complied to the Ph. Eur monograph 0169 for WFI. All product contact vials, glassware and peripherals were sterilised by depyrogenation in a hot air oven at 250° C. for 120 minutes after twice rinsing with WFI. Product contact tubing, stoppers and over-seals were twice rinsed with WFI then sterilised by autoclaving for >15 minutes at 121° C. then dried overnight in a drying oven. The vials were stored as set out in Table 1 below and analysed according to the listed parameters. Appearance was tested visually according to Ph.Eur 2.9.20 and osmolality according to Ph. Eur. 2.2.35. pH was tested according to Ph. Eur. 2.2.3. Colour and clarity were tested according to Ph. Eur 2.2.2 and Ph. Eur 2.2.1, respectively.

[3] = Purity/related substances after storage, HPLC, Example 1.3; type: physicochemical; conditions: 20 mg/mL in WFI
Description: (§2) Reversed phase HPLC, using a trifluoracetic acid (TFA) system and UV detection at 220 nm, was used to determine the amount of LTX-315 after storage of the vials in accordance with the storage conditions set out in Table 2.
(§3) The column used was an RP C18, e.g. Waters Sunfire, 3.5 μm, 4.6×150 mm. The LTX-315 concentration in the test sample solution was 0.5 mg/ml and the injection volume 10 μl. The gradient profile used is set out below and the flow rate was 1.2 mL/min.
(§4) Drug product was prepared and stored as described in Example 1.1.
HPLC analysis was performed as described in Example 1.2 to determine the concentration of LTX-315 and the amount of related substances, i.e. substances formed due to and thus related to the degradation of LTX-315 in the drug product.

[4] = Osmolality of LTX-315 drug product on storage (Ph. Eur. 2.2.35), Example 1.1; type: physicochemical; conditions: 20 mg/mL in WFI
Description: as §1

[5] = Appearance of LTX-315 drug product in sealed vials on storage (visual, Ph.Eur 2.9.20), Example 1.1; type: physicochemical
Description: as §1

[6] = LTX-315 concentration after storage, reversed phase HPLC UV 220 nm, Example 1.2; type: physicochemical; conditions: for LTX-315 concentration, Vial 1 / LTX-315 concentration, Vial 2 / Mean content / Rec./T = 0 / Rec./theory (percentage of theoretical 20 mg/mL): 20 mg/mL in WFI
Description: as §4, §2, §3

C[C@@H](O)[C@@H]1NC(=O)[C@H](CCCCN)NC(=O)[C@@H](Cc2c[nH]c3ccccc23)NC(=O)[C@H](Cc2ccccc2)NC(=O)[C@@H](NC(=O)[C@H](N)Cc2ccccc2)CSSC[C@@H](C(=O)N[C@H](CO)[C@@H](C)O)NC1=O [octreotide]
Permitted storage time of liquid product [1]: up to 14 days

K-K-W-W-K-K-W-Dip-K-NH2 (KKWWKKW[Dip]K-NH2) [LTX-315]
pH ([2]; 2-8° C., T = 3 months): 6.2 | pH ([2]; 2-8° C., T = 6 months): 6.0 | pH ([2]; 2-8° C., T = 12 months): 6.1 | pH ([2]; 2-8° C., T = 24 months): 6.1 | pH ([2]; 25° C./60% RH, T = 3 months): 6.2 | pH ([2]; 25° C./60% RH, T = 6 months): 6.1 | pH ([2]; Initial (T = 0)): 6.1 | Total related substances (sum of related substances >0.05%) ([3]; 2-8° C., 1 M): 1.31 area % | Total related substances (sum of related substances >0.05%) ([3]; 2-8° C., 3 M): 1.32 area % | Total related substances (sum of related substances >0.05%) ([3]; 2-8° C., 6 M): 0.98 area % | Total related substances (sum of related substances >0.05%) ([3]; 2-8° C., 9 M): 1.54 area % | Total related substances (sum of related substances >0.05%) ([3]; 2-8° C., 12 M): 1.34 area % | Total related substances (sum of related substances >0.05%) ([3]; 2-8° C., 18 M): 1.37 area % | Total related substances (sum of related substances >0.05%) ([3]; 2-8° C., 24 M): 1.64 area % | Total related substances (sum of related substances >0.05%) ([3]; 2-8° C., Initial (T = 0)): 0.88 area % | Total related substances (sum of related substances >0.05%) ([3]; 25° C./60% RH, 1 M): 1.55 area % | Total related substances (sum of related substances >0.05%) ([3]; 25° C./60% RH, 3 M): 1.97 area % | Total related substances (sum of related substances >0.05%) ([3]; 25° C./60% RH, 6 M): 2.31 area % | Total related substances (sum of related substances >0.05%) ([3]; 25° C./60% RH, Initial (T = 0)): 0.88 area % | Osmolality ([4]; 2-8° C., T = 6 months): 133 mOsmkg^−1 | Osmolality ([4]; 2-8° C., T = 12 months): 133 mOsmkg^−1 | Osmolality ([4]; 2-8° C., T = 24 months): 132 mOsmkg^−1 | Osmolality ([4]; 25° C./60% RH, T = 6 months): 133 mOsmkg^−1 | Osmolality ([4]; Initial (T = 0)): 132 mOsmkg^−1 | Change in appearance, osmolality, pH, colour and clarity ([5]; 6 months at 25° C. with 60% RH in the dark): no change | Change in appearance, osmolality, pH, colour and clarity ([5]; 24 months in the dark at 2-8° C.): no change | LTX-315 concentration, Vial 1 ([6]; 2-8° C., T = 1 month): 20.548 mg/mL | LTX-315 concentration, Vial 2 ([6]; 2-8° C., T = 1 month): 19.916 mg/mL | Mean content ([6]; 2-8° C., T = 1 month): 20.2 mg/mL | Rec./T = 0 ([6]; 2-8° C., T = 1 month): 96.3% | Rec./theory (percentage of theoretical 20 mg/mL) ([6]; 2-8° C., T = 1 month): 101.2% | LTX-315 concentration, Vial 1 ([6]; 2-8° C., T = 3 months): 21.241 mg/mL | LTX-315 concentration, Vial 2 ([6]; 2-8° C., T = 3 months): 21.276 mg/mL | Mean content ([6]; 2-8° C., T = 3 months): 21.2 mg/mL | Rec./T = 0 ([6]; 2-8° C., T = 3 months): 101.1% | Rec./theory (percentage of theoretical 20 mg/mL) ([6]; 2-8° C., T = 3 months): 106.3% | LTX-315 concentration, Vial 1 ([6]; 2-8° C., T = 6 months): 20.979 mg/mL | LTX-315 concentration, Vial 2 ([6]; 2-8° C., T = 6 months): 21.027 mg/mL | Mean content ([6]; 2-8° C., T = 6 months): 21.0 mg/mL | Rec./T = 0 ([6]; 2-8° C., T = 6 months): 99.9% | Rec./theory (percentage of theoretical 20 mg/mL) ([6]; 2-8° C., T = 6 months): 105.0% | LTX-315 concentration, Vial 1 ([6]; 2-8° C., T = 9 months): 20.311 mg/mL | LTX-315 concentration, Vial 2 ([6]; 2-8° C., T = 9 months): 20.631 mg/mL | Mean content ([6]; 2-8° C., T = 9 months): 20.4 mg/mL | Rec./T = 0 ([6]; 2-8° C., T = 9 months): 97.4% | Rec./theory (percentage of theoretical 20 mg/mL) ([6]; 2-8° C., T = 9 months): 102.4% | LTX-315 concentration, Vial 1 ([6]; 2-8° C., T = 12 months): 20.895 mg/mL | LTX-315 concentration, Vial 2 ([6]; 2-8° C., T = 12 months): 20.631 mg/mL | Mean content ([6]; 2-8° C., T = 12 months): 20.7 mg/mL | Rec./T = 0 ([6]; 2-8° C., T = 12 months): 98.8% | Rec./theory (percentage of theoretical 20 mg/mL) ([6]; 2-8° C., T = 12 months): 103.8% | LTX-315 concentration, Vial 1 ([6]; 2-8° C., T = 18 months): 19.204 mg/mL | LTX-315 concentration, Vial 2 ([6]; 2-8° C., T = 18 months): 19.990 mg/mL | Mean content ([6]; 2-8° C., T = 18 months): 19.6 mg/mL | Rec./T = 0 ([6]; 2-8° C., T = 18 months): 93.2% | Rec./theory (percentage of theoretical 20 mg/mL) ([6]; 2-8° C., T = 18 months): 98.0% | LTX-315 concentration, Vial 1 ([6]; 2-8° C., T = 24 months): 20.150 mg/mL | LTX-315 concentration, Vial 2 ([6]; 2-8° C., T = 24 months): 19.669 mg/mL | Mean content ([6]; 2-8° C., T = 24 months): 19.9 mg/mL | Rec./T = 0 ([6]; 2-8° C., T = 24 months): 94.7% | Rec./theory (percentage of theoretical 20 mg/mL) ([6]; 2-8° C., T = 24 months): 99.5% | LTX-315 concentration, Vial 1 ([6]; 25° C./60% RH, T = 1 month): 20.269 mg/mL | LTX-315 concentration, Vial 2 ([6]; 25° C./60% RH, T = 1 month): 20.194 mg/mL | Mean content ([6]; 25° C./60% RH, T = 1 month): 20.2 mg/mL | Rec./T = 0 ([6]; 25° C./60% RH, T = 1 month): 96.2% | Rec./theory (percentage of theoretical 20 mg/mL) ([6]; 25° C./60% RH, T = 1 month): 101.2% | LTX-315 concentration, Vial 1 ([6]; 25° C./60% RH, T = 3 months): 20.897 mg/mL | LTX-315 concentration, Vial 2 ([6]; 25° C./60% RH, T = 3 months): 20.222 mg/mL | Mean content ([6]; 25° C./60% RH, T = 3 months): 20.5 mg/mL | Rec./T = 0 ([6]; 25° C./60% RH, T = 3 months): 97.8% | Rec./theory (percentage of theoretical 20 mg/mL) ([6]; 25° C./60% RH, T = 3 months): 102.8% | LTX-315 concentration, Vial 1 ([6]; 25° C./60% RH, T = 6 months): 20.575 mg/mL | LTX-315 concentration, Vial 2 ([6]; 25° C./60% RH, T = 6 months): 20.215 mg/mL | Mean content ([6]; 25° C./60% RH, T = 6 months): 20.3 mg/mL | Rec./T = 0 ([6]; 25° C./60% RH, T = 6 months): 97.0% | Rec./theory (percentage of theoretical 20 mg/mL) ([6]; 25° C./60% RH, T = 6 months): 102.0% | LTX-315 concentration, Vial 1 ([6]; Initial (T = 0)): 21.068 mg/mL | LTX-315 concentration, Vial 2 ([6]; Initial (T = 0)): 20.978 mg/mL | Mean content ([6]; Initial (T = 0)): 21.0 mg/mL | Rec./theory (percentage of theoretical 20 mg/mL) ([6]; Initial (T = 0)): 105.1% | Change in LTX-315 concentration ([6]; 2-8° C., 24 months): very slight decrease | Concentration of LTX-315 versus T=0 ([6]; 25° C. with 60% relative humidity, six months): the same as the concentration at T=0
